The labels stand for the following.
B1: TPR t1 (parent)
chain: GACCAAUCUGCCCUCAGAGCUCGAGAACAUCUUCGGAUGCAGAGGAGGCAGGCUUCGGUGGCGCGAUAGCGCCAACGUCCUCAACCUCCAAUGCAUCCCACCACAUGAUGAUGCCUGAAGAGCCUUGGUUUUUUG

Variants of B1 are the subject of this series. As to the kind of experiment: polymerase ribozyme fitness, log enrichment relative to wild type (log ratio); higher = more active; in vitro selection for triplet polymerase activity. The method in brief:
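Streptavidin-bead capture of gel-excised extended constructs, followed by RT-PCR, closed a single triplicate in vitro selection round. That round began by annealing PCR-built, transcribed mutant libraries of each subunit of a heterodimeric triplet polymerase ribozyme with a biotinylated primer, the partner subunit and triplets, then incubating them frozen at −7 °C. After Illumina sequencing of inputs and outputs, genotypes needed ≥10 input reads and ≥1 read per output. Fitness is the base-2 logarithm of genotype enrichment over wild-type enrichment, using inverse-variance-weighted replicate averages.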
With A29U C62G U81C A100U C124A, the “polymerase ribozyme fitness (log ratio)” value was -3.66. Turning to A29U A46U U106A, the “polymerase ribozyme fitness (log ratio)” value was -2.03. Consider A29U G71A G135C, for which the “polymerase ribozyme fitness (log ratio)” value is -2.1.

On to A27G C89A U92A C98A A111C, for which the “polymerase ribozyme fitness (log ratio)” value is -6.08.

For A27C C76A, the “polymerase ribozyme fitness (log ratio)” value was -5.92. Regarding A29U C53U C72G A83U U96A, the “polymerase ribozyme fitness (log ratio)” value was -4.12.

As to A29U C53A, the “polymerase ribozyme fitness (log ratio)” value is -1.37. Next, A27U U55G C56A G61A C62G U112C G120U G128A U130C: -7.21; A27U C88A: -4.4. The same measure for A27U G51A A74C A83C: -7.03; for A27C C72A C79U G113U: -6.86. Next, A29U A46G C115G: -2.96. In the case of A29G G69A A75U C104U U112G, the “polymerase ribozyme fitness (log ratio)” value was -4.35. Consider U30C G61A C79G, for which the “polymerase ribozyme fitness (log ratio)” value is -4.69. As for C28G A83G U130C, the “polymerase ribozyme fitness (log ratio)” value was -4.34. Take A27G G39U C73U G110C: the “polymerase ribozyme fitness (log ratio)” value was -3.91. A29U G61C: the “polymerase ribozyme fitness (log ratio)” value was -2.79.

As for A27G A37U A121G, the “polymerase ribozyme fitness (log ratio)” value was found to be 0.646. Consider A29U C79A, for which the “polymerase ribozyme fitness (log ratio)” value is -3.06.

Turning to A29U C99U U106A, the “polymerase ribozyme fitness (log ratio)” value was -4.1. The same measure for A29U G48A G63C A111C: -2.36. As for A29G G63A, the “polymerase ribozyme fitness (log ratio)” value is -1.9. As to A29U G93A, the “polymerase ribozyme fitness (log ratio)” value was -2.13. Take C28A U96A C97A G110A C124A: the “polymerase ribozyme fitness (log ratio)” value was -3.05. Next, A29G G51U U55A G57U: -3.55; A29U A46C: -3.27. The same measure for A27G A41U: -2.67; for A27C C56G: -3.34. The same measure for A27U G107A A121U G128U G135C: -3.88; for A29G C101G: -4.66; for A27G G42A C73G: -5.22.

On to A29G C101A A118U, for which the “polymerase ribozyme fitness (log ratio)” value is -3.6. The same measure for C28A G63A: -5.86.

As to C28U A83C, the “polymerase ribozyme fitness (log ratio)” value is -2.54.

Turning to A29G U32A U55C, the “polymerase ribozyme fitness (log ratio)” value was -5.1. The same measure for A29G G60U A84C C94U U106A G120A U125G: -0.963; for A27U C53G A66G: -4.36. For A27U A118G, the “polymerase ribozyme fitness (log ratio)” value was -3.19. Regarding C28U G110A, the “polymerase ribozyme fitness (log ratio)” value stood at 0.874. Turning to A27U C40U C82A, the “polymerase ribozyme fitness (log ratio)” value is -3.5. For A27G G51U G61A U92A, the “polymerase ribozyme fitness (log ratio)” value was -6.49.

Consider C28U G69U, for which the “polymerase ribozyme fitness (log ratio)” value was -0.614. As to C28A G61A G93A C123A, the “polymerase ribozyme fitness (log ratio)” value was -3.78. Next, A27U C72U A83U G127A: -4.42; A27C C72G U112C G120C U126C U131A: -4.66. Next, C28U C34U C73G C102U G110A: -0.0797. For A27U C31G G69U C79G G120C U130G U132A, the “polymerase ribozyme fitness (log ratio)” value is -6.29. Next, C28U C49A C72A C114G: -5.7; A29G G47A U55A C56G: -2.62; C28U C80A: -5.53. Turning to A27U U30A G61U C72U A84C C98G A111U, the “polymerase ribozyme fitness (log ratio)” value is -8.22. Consider A29G C73A C76A, for which the “polymerase ribozyme fitness (log ratio)” value was -3.61. On to A29U C70G, for which the “polymerase ribozyme fitness (log ratio)” value was -3.31. The same measure for A29C A37G: -2.11; for A27G C86U C94U: -1.98; for A29G A95G: -1.84. Turning to C28A U54C U106C, the “polymerase ribozyme fitness (log ratio)” value was -5.05. The same measure for A29U G69U C123A: -0.777. A29C A41C C56G U59A G69U C82U A121C G135C: the “polymerase ribozyme fitness (log ratio)” value is -6.04. The same measure for C28G C62G: -4.58; for C28G C40U G57U G63C: -4.66.

On to A27U C72U U87G, for which the “polymerase ribozyme fitness (log ratio)” value was -3.11. Next, C28U G61C: -4.7.

For the variant C28U G61A, the “polymerase ribozyme fitness (log ratio)” value is -1.12. With C28U U112A G122A U129A, the “polymerase ribozyme fitness (log ratio)” value is -6.54.

Take C28A G61U G120A: the “polymerase ribozyme fitness (log ratio)” value is -3.5. As to A29U G48C C53U, the “polymerase ribozyme fitness (log ratio)” value was -3.4. Next, A27G C115U: -4.58. Regarding C28G C34G G42U A46G C56A C104A A111G U131G, the “polymerase ribozyme fitness (log ratio)” value was -5.4. The same measure for A29U G52C C73G U129A: -4.18; for C28U C82A C94A U125G: -4.37. A29U A43C G44U C53G A111U U134A: the “polymerase ribozyme fitness (log ratio)” value is -0.68.

As for A29U A84C U87C U112C, the “polymerase ribozyme fitness (log ratio)” value is -0.813. As for A27U C56G A91G U131A U133G, the “polymerase ribozyme fitness (log ratio)” value was -5.19. Next, A29G C102A: -4.16; A29G C56G A91C U112A A121G G122C: -2.1. As for A27C G60A G110A, the “polymerase ribozyme fitness (log ratio)” value is -6.05. With A27G A41U G48A C88A, the “polymerase ribozyme fitness (log ratio)” value is -5.84.

On to C28U G44U C49U G63C G110A, for which the “polymerase ribozyme fitness (log ratio)” value is -2.74. On to A29G C40A A41U U92G, for which the “polymerase ribozyme fitness (log ratio)” value is -4.59. The same measure for A29G A105C: -7.42; for A27U C62U A74G: -7.73. Regarding U30A G48C C124A, the “polymerase ribozyme fitness (log ratio)” value is -5.2. As to A29U C49G C73U C76U C94A, the “polymerase ribozyme fitness (log ratio)” value was -3.55. As for A27U G44A U129A, the “polymerase ribozyme fitness (log ratio)” value is -6.51. The same measure for A27C G61C: -5.63; for U30A A111U: -4.14; for A27G C56U U96A U109G C115G C124U: -7.02.

For the variant A29C G57A C62U, the “polymerase ribozyme fitness (log ratio)” value is -3.66.

On to A29G C64U C104A U106A U112C, for which the “polymerase ribozyme fitness (log ratio)” value was -0.729.

As for A27G G51A U78C, the “polymerase ribozyme fitness (log ratio)” value was -3.93. For the variant C28A G48U C53U G57C G60A U106C, the “polymerase ribozyme fitness (log ratio)” value was -5.56. Consider C28U C73A, for which the “polymerase ribozyme fitness (log ratio)” value is -2.23.

As for A29U A41C, the “polymerase ribozyme fitness (log ratio)” value is -2. The same measure for C28U G135U: -2.44; for A29U U38G G45U G120A U129A: -4.85; for A29G G61C: -2.51. In the case of A29U C53A U129G, the “polymerase ribozyme fitness (log ratio)” value was -2.03. For A29G C56U, the “polymerase ribozyme fitness (log ratio)” value is -1.17. Next, A29U C98U: -3.59.

As to A27U G60C C82G G120C G128U, the “polymerase ribozyme fitness (log ratio)” value is -4.87. Next, A29U A41C A119G C123G: -1.43; A29U G42C G69U A119U: -2.46; A29G U87A C104G A111U: -4.03.

On to C28G U54A G122U, for which the “polymerase ribozyme fitness (log ratio)” value was -2.85. Consider C28A G42A G77C G110U, for which the “polymerase ribozyme fitness (log ratio)” value was -1.22. Next, A27U A90U: -5.37; A29G G69C G120A: -2.54. On to A29U G117C, for which the “polymerase ribozyme fitness (log ratio)” value was -3.48. A29U G61A C73U: the “polymerase ribozyme fitness (log ratio)” value was -1.74. The same measure for A27U G117U C123G: -4.27; for C28U C101G: -5.15; for C28U G39C C56G C104U: -5.32. With A27U C62U G117U C123G, the “polymerase ribozyme fitness (log ratio)” value was -5.03.

With A27U G47A U125G, the “polymerase ribozyme fitness (log ratio)” value was -2.83. The same measure for C28U C62U G69U: -1.04. Next, A27G C28A G52U: -5.13; A27U C72U U106G U129A G135U: -5.91. In the case of A29U U126C, the “polymerase ribozyme fitness (log ratio)” value is -2.33. In the case of A29G A90C U92C, the “polymerase ribozyme fitness (log ratio)” value is -3.09. Next, C28U C70A: -4.5; A29C C53G A111U: -1.63.

On to A27G A84C C99U, for which the “polymerase ribozyme fitness (log ratio)” value was -5.83. Next, U30C G52C: -3.38; A27U G60U G61C: -5.43; C28U U32A C70U G120C: -6.64. For the variant C28A C89U U112A, the “polymerase ribozyme fitness (log ratio)” value is -1.62. Next, C28A A46U U54G C73U C82G A90G C123U: -4.12; C28A G39U A83C C123U U133A: -4; C28U G71C U87G: -3.85.

As for A27C C72A, the “polymerase ribozyme fitness (log ratio)” value is -3.22. The same measure for A29U C56U C73U: -1.33; for A27U G61U C102U U109G: -5.55; for C28A C64U C70A C99U G110U G120C U132A: -7.34.

Take A29C A90G G113U C114U: the “polymerase ribozyme fitness (log ratio)” value is -3.29.

With A29G C115U U126G, the “polymerase ribozyme fitness (log ratio)” value was -3.15. The same measure for C28A C76G G120A: -4.53. Next, C28A A43U: -5.18; A29G G52U: -1.55; C28A C72U C123U: -3.7. The same measure for C28A U54A G61U G110U: 2.18; for A29G A37G C40U G61C G127U: -4.48.

Consider A27U U59C, for which the “polymerase ribozyme fitness (log ratio)” value is -3.53. Turning to A27U G57C C89G G120A U131A, the “polymerase ribozyme fitness (log ratio)” value is -4.12. The same measure for U30A A37U: -4.9. C28G C56A C73G U106C: the “polymerase ribozyme fitness (log ratio)” value is -4.85.

For U30C A50C, the “polymerase ribozyme fitness (log ratio)” value is -2.91.

For U30C G44U A50G C88U, the “polymerase ribozyme fitness (log ratio)” value is -2.96.

Turning to A29G A46U G69U C86U, the “polymerase ribozyme fitness (log ratio)” value was -2.23. Next, A29C G39A A50U G52A U112C: -5.09. For the variant A29U A119G, the “polymerase ribozyme fitness (log ratio)” value is -0.662. For the variant A27U U81C G120A G135A, the “polymerase ribozyme fitness (log ratio)” value was -4.49. With A27C C124A, the “polymerase ribozyme fitness (log ratio)” value is -0.901. The same measure for A27G C49U C123A: -1.76; for A27G A105C: -3.41.

Take A29G A43C: the “polymerase ribozyme fitness (log ratio)” value is -3.7. The same measure for C28G G60U U130G: -2.82; for U30C G58C: -2.83; for U30A C104U A121C: -4.08. U30A C73A: the “polymerase ribozyme fitness (log ratio)” value is -5.19.

In the case of A27G A46G C72U, the “polymerase ribozyme fitness (log ratio)” value is -3.52. For the variant A27G A83G C86U, the “polymerase ribozyme fitness (log ratio)” value was -2.33. As for A29U U54G, the “polymerase ribozyme fitness (log ratio)” value is -2.02.

With A29G A74U, the “polymerase ribozyme fitness (log ratio)” value was -1.73. The same measure for C28A G135U: -4.58; for A27U A37G G48A C72G A83U U130A: -4.93; for A29U G61C C72A: -1.68.

The record behind these values is the RNAGym collection of RNA variant scans (doi:10.1073/pnas.2313332121).
